According to patent US20130230533A1 (Regeneron, published 2013):

Tests used:
[1] = molecular target: T1, human CD48 (on primary human peripheral blood mononuclear cells) (human, UniProt P09326 27-220); assay: cell-based or functional assay
T1 sequence: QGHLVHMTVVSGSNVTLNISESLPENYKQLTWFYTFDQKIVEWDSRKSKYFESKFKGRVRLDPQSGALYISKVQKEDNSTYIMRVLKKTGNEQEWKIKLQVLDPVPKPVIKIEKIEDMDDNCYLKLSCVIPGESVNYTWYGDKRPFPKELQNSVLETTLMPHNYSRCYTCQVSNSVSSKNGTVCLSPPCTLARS

[2] = molecular target: T1, human CD48 (on primary human peripheral …); assay: cell-based or functional assay; remark: listed apart in the source
[3] = molecular target: T2, monomeric monkey CD48 expressed with a tag consisting of 2 myc and one 6-His epitopes (monkey); assay: competition ELISA; blocks mfCD48-mmH binding to coated h2B4-hFc
T2 construct: also called mfCD48-mmH; Monomeric monkey CD48-mmH
T2 chain: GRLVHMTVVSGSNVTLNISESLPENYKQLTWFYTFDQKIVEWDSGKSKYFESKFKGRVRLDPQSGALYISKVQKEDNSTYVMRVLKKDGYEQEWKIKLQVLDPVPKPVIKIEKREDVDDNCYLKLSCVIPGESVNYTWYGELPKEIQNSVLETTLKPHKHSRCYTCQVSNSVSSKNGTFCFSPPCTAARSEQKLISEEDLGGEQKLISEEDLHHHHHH
Procedure: (§1) The ability of human anti-CD48 monoclonal antibodies to block human CD48 and monkey CD48 binding to the human cognate ligand, human 2B4, was measured using a competition sandwich ELISA (Table 8). Constant amounts of biotinylated dimeric human CD48 protein expressed as a fusion with mouse IgG2a Fc (“bio-hCD48-mFc” [SEQ ID NO: 387]) or monomeric monkey CD48 expressed with a tag consisting of 2 myc and one 6-His epitopes (“mfCD48-mmH” [SEQ ID NO: 386]) were separately titrated with varying amounts of antibodies. These antibody-protein complexes were incubated (1 hr, 25° C.) before being transferred to microtiter plates coated with a dimeric construct expressing the human 2B4 receptor fused to a either human IgG1 (h2B4-hFc [R&D Systems, Inc., Minneapolis, Minn., Cat. No. 1039-2B]) or mouse IgG2a Fc (h2B4-mFc [SEQ ID NO: 389). After a 1 hr at 25° C. the wells were washed and bound human CD48 was detected with streptavidin conjugated with horse-radish peroxidase (HRP), and monkey CD48 was detected with an HRP conjugated anti-myc polyclonal antibody. The ELISA was developed with a TMB solution to produce a colorimetric reaction and quenched with sulfuric acid before reading absorbance at 450 nm on a Victor X5 plate reader. Sigmoidal dose response curves were fit to the data using Prism™ software. […] (Tables 8 and 9, NB=no binding observed)

[4] = molecular target: T2, monomeric monkey CD48 expressed with a …; assay: competition ELISA; blocks mfCD48-mmH binding to coated h2B4-mFc
Method in brief: (§2)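 Fixed amounts of bio-hCD48-mFc or mfCD48-mmH were titrated with antibody, preincubated 1 h at 25 °C, then bound to h2B4-hFc- or h2B4-mFc-coated plates 1 h at 25 °C. Human CD48 detected with streptavidin-HRP, monkey CD48 with HRP anti-myc; TMB, A450; sigmoidal dose-response fit.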

[5] = molecular target: T3, biotinylated dimeric human CD48 protein expressed as a fusion with mouse IgG2a Fc (human, biotinylated); assay: competition ELISA; blocks bio-hCD48-mFc binding to coated h2B4-hFc
T3 construct: also called bio-hCD48-mFc; Dimeric human CD48-mFc
T3 chain: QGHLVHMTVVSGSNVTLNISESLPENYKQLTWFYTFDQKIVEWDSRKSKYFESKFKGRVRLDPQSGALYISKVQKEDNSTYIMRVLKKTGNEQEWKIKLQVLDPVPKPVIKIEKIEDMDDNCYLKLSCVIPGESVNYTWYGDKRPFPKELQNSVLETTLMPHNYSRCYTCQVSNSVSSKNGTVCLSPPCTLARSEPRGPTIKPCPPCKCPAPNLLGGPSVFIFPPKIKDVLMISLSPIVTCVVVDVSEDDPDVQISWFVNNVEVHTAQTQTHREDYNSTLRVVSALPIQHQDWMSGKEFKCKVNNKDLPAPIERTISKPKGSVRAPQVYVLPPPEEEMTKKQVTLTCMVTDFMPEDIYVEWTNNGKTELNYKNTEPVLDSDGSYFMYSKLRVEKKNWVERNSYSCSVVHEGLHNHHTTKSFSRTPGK
Procedure: as §1

[6] = molecular target: T3, biotinylated dimeric human CD48 protein …; assay: competition ELISA; blocks bio-hCD48-mFc binding to coated h2B4-mFc
Method in brief: as §2

Inhibition of IFN-gamma Release IC50; Donor 1 [1]: 2.1e-11 Molar | Inhibition of IFN-gamma Release IC50; Donor 2 [1]: 7.6e-11 Molar | Inhibition of IFN-gamma Release IC50; Donor 4 [1]: 1.1e-10 Molar | Inhibition of IFN-gamma Release IC50; Donor 5 [1]: 1.1e-11 Molar | Inhibition of IFN-gamma Release IC50; Donor 6 [2]: 2.2e-11 Molar | Inhibition of IFN-gamma Release IC50; Donor 7 [2]: 1e-10 Molar | IC50 [3]: 24 pM | IC50 [4]: 2.5 pM | IC50 [5]: 26 pM | IC50 [6]: 22 pM
B1: H2M1713N (antibody, mouse IgG2, V domains shown)
VH: QVQLVQSGAEVKKPGASVKVSCKASGHTFTNYYIHWVRQAPGQGLEWMGITNPNDGNTRYAQKFQGRISMTWDTSTSTVFMELSSLKSEDTAVYYCAGLRYWFFDLWGRGTPVTVSS
VL: DIQMTQSPSSVSASVGDRVTITCRASQDISSWLAWYQQKPGKAPNLLIFAASSLQSGVPSRFSGSGSGTDFTLTISSLQPEDFGTYYCQQTDNFPRTFGQGTKVEIN
notes: Human variable domains, mouse IgG2 Fc (H2M)
